# T1: full-length human IL-36R on cells (human, UniProt Q9HB29 20-575)
# T1 sequence (looked up): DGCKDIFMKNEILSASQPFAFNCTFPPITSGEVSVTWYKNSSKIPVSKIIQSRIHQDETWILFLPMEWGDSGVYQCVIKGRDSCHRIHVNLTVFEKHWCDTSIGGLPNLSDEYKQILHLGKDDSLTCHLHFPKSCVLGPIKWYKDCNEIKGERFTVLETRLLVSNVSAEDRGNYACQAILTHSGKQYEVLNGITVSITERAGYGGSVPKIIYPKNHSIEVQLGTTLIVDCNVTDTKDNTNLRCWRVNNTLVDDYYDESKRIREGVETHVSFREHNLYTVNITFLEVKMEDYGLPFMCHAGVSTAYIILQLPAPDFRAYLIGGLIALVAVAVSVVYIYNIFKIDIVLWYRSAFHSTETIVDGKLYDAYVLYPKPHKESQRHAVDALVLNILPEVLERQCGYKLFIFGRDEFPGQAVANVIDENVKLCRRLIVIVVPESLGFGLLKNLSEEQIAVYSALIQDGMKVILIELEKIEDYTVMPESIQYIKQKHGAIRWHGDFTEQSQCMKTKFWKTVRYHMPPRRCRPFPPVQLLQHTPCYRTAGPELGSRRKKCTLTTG
# T2: Macaca fascicularis IL-36R on cells (Macaca fascicularis, UniProt A0A2K5WSK9 20-558)
# T2 sequence: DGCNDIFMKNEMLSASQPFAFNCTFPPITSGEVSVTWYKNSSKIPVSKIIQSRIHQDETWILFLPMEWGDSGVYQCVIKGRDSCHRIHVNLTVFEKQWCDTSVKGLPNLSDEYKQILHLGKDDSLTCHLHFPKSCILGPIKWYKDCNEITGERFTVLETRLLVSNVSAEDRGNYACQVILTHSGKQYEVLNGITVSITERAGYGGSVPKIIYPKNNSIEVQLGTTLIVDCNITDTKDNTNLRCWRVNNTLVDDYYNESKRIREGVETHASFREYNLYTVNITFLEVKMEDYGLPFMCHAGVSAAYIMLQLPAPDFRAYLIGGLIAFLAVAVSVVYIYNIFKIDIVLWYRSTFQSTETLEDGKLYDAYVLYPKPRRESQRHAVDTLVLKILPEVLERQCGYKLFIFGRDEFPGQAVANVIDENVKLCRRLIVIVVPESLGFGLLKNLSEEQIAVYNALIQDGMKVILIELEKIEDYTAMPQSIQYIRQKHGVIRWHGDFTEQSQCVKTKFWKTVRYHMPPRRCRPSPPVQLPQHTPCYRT
# T3: human IL-36R (IL1RL2) on primary human cells (human, UniProt Q9HB29 20-575)
# T3 sequence (looked up): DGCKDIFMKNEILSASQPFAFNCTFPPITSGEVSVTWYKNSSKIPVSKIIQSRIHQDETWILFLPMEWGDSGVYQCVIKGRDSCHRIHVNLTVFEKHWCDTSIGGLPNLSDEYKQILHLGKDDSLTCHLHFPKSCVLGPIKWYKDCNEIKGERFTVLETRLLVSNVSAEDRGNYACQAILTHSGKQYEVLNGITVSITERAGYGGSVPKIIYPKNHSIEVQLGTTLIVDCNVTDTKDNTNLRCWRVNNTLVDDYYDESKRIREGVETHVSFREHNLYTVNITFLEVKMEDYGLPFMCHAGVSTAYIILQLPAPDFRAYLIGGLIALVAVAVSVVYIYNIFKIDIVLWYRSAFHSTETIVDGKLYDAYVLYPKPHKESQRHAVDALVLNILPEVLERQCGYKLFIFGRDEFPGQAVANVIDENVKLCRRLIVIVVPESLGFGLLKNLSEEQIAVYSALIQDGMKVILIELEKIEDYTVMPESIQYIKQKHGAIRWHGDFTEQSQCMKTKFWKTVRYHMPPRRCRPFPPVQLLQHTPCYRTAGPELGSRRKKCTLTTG
# Legend:
# [1] = target: T1, full-length human IL-36R on cells; assay: cell-based or functional assay
# [2] = target: T1, full-length human IL-36R on cells; assay: cell-based or functional assay; remark: listed apart in the source
# [3] = target: T2, Macaca fascicularis IL-36R on cells; assay: cell-based or functional assay
# [4] = target: T4, recombinant human IL-36R extracellular domain expressed with a C-terminal myc-myc-hexahistidine tag (human, UniProt Q9HB29 20-337); assay: SPR (Biacore 4000), mAb captured on anti-human Fc, 25°C
# T4 construct: also called hIL-36R-MMH; hIL-36R.mmH
# T4 sequence (Q9HB29 other isoform, or with tags, fused parts or gaps limits assumed): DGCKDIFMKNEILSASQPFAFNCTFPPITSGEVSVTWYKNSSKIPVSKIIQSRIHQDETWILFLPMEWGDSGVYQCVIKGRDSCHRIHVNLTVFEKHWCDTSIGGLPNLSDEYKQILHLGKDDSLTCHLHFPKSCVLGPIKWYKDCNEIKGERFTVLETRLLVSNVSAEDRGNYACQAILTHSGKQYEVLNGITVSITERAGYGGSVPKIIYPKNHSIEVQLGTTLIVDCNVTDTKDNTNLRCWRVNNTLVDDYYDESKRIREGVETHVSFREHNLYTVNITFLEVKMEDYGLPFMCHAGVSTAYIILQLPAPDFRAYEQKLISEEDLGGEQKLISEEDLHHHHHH
# Protocol: (§1) Equilibrium dissociation constants (KD values) for IL-36R binding to purified anti-IL-36R antibodies were determined using a real-time surface plasmon resonance biosensor using a Biacore 4000 instrument. The Biacore sensor surface was first derivatized by amine coupling with a monoclonal mouse anti-human Fc antibody (GE, # BR-1008-39) to capture anti-IL-36R monoclonal antibodies. All binding studies were performed in 0.01 M Hepes pH 7.4, 0.15 M NaCl, 3 mM EDTA, and 0.05% v/v Surfactant Tween-20 (HBS-ET running buffer) at 25° C. and 37° C. Different concentrations of IL-36R reagents, human IL-36R extracellular domain expressed with a C-terminal myc-myc-hexahistidine tag (hIL-36R-MMH), Macaca fascicularis IL-36R extracellular domain expressed with a C-terminal myc-myc-hexahistidine tag (mfIL-36R-MMH: mROR1 signal sequence (M1-A29). Macaca fascicularis IL36R_ecto domain (D20-A336).mycmycHis6), human IL-36R extracellular domain expressed with a C-terminal mouse IgG2a Fc tag (hIL-36R-mFc: mROR1 signal sequence (M1-A29)-human IL36R (D20-Y337)-mouse IgG2aFc (E98-K330)) or an in-line fusion protein of human IL-36R extracellular domain and IL1RAcP extracellular domain expressed with mouse IgG2a Fc tag (hIL-36R-Trap-mFc: mROR1 signal sequence (M1-A29)-human IL36R ecto domain (D20-Y337)-human IL1RacP ecto domain(S21-E359)-mouse IgG2aFc) in HBS-ET running buffer (ranging from 100 nM to 3.7 nM, 3-fold dilutions) were injected over the anti-IL-36R antibody captured surface for 4 minutes at a flow rate of 30 μL/minute and their dissociation in HBS-ET running buffer was monitored for 10 minutes. Kinetic association rate constant (kₐ) and dissociation rate constant (kd) were determined by fitting the real-time sensorgrams to a 1:1 binding model using Scrubber 2.0c curve fitting software. Binding dissociation equilibrium constants (KD) and dissociative half-lives (t_{1/2}) were calculated from the kinetic rate constants as: […]
# [5] = target: T4, recombinant human IL-36R extracellular …; assay: SPR (Biacore 4000), mAb captured on anti-human Fc, 37°C
# Protocol: as §1
# [6] = target: T3, human IL-36R (IL1RL2) on primary human …; assay: cell-based or functional assay
Binder,"IC50, IL-8 production of primary human cells stimulated with 10 nM IL-36α, β and γ [1] [nM]","IC50 [M], NFκB-luciferase, 10 pM hIL-36γ [2] [M]","IC50 [M], NFκB-luciferase, 15 pM hIL-36β [2] [M]","IC50 [M], NFκB-luciferase, 20 pM hIL-36α [2] [M]","Max Inhibition (%), NFκB-luciferase, 10 pM hIL-36γ [2] [%]","Max Inhibition (%), NFκB-luciferase, 15 pM hIL-36β [2] [%]","Max Inhibition (%), NFκB-luciferase, 20 pM hIL-36α [2] [%]","IC50 [M], NFκB-luciferase, 300 pM hIL-36γ [3] [M]","IC50 [M], NFκB-luciferase, 500 pM hIL-36α [3] [M]","IC50 [M], NFκB-luciferase, 600 pM hIL-36β [3] [M]","Max Inhibition (%), NFκB-luciferase, 300 pM hIL-36γ [3] [%]","Max Inhibition (%), NFκB-luciferase, 500 pM hIL-36α [3] [%]","Max Inhibition (%), NFκB-luciferase, 600 pM hIL-36β [3] [%]",100 nM hIL-36R-MMH Bound (RU) [4] [RU],Kd [4] [nM],koff [4] [s⁻¹],kon [4] [M⁻¹ s⁻¹],t½ [4] [min],100 nM hIL-36R-MMH Bound (RU) [5] [RU],Kd [5] [nM],also measured
"H4H14706P2 (antibody, human IgG4 S228P, kappa, V domains shown) VH: EVQLVESGGGLVQPGRSLRLSCTASGFTFDDYAIHWVRQSPGKGLEWVSVISWNSDVIGYADSVKGRFTISRDNAKNSLYLQMNSLRAEDTALYYCAKGYNWNFFDYWGQGTLVTVSS VL: EIVLTQSPATLSLSPGERATLSCRASQSVSSYLAWYQQKPGQAPRLLIYNAANRATDIPARFSGSGSGTDFTLTISSLEPEDFAVYYCQQRSNWPLTFGGGTKVEIKR [H4H14706P2, listing 1 of 2 here]",1 to 6,1.2e-10,1.2e-10,1e-10,99,101,101,8.5e-11,6e-11,1.2e-10,100,100,100,89,4.08,0.000495,121000,23,113,8.65,koff [5]: 0.0013 s⁻¹; kon [5]: 150000 M⁻¹ s⁻¹; t½ [5]: 9 min
"H4H14708P2 (antibody, human IgG4 S228P, kappa, V domains shown) VH: EVQLVESGGDLVQPGRSLRLSCAASGFTFDDYAMHWVRQAPGKGLEWVSVISWNSDVIAYSDSVKGRFTISRDNAKNSLYLQMNSLRTEDTALYYCTKGHKWSFFDYWGQGTLVTVSS VL: EIVLTQSPATLSLSPGERATLSCRASQSISSYLAWYQQKPGQAPRLLIFNVANRATDIPARFSGSGSGTDFTLTISSLEPEDFAVYYCQQRSNWPLTFGGGTKVEIKR [H4H14708P2, listing 1 of 2 here]",–,–,–,–,–,–,–,–,–,–,–,–,–,–,–,–,–,–,–,–,"IC50 [M], IL-8 production, InMyoFib stimulated with 10 nM hIL-36α [6]: 5.72e-09 M; IC50 [M], IL-8 production, InMyoFib stimulated with 10 nM hIL-36β [6]: 5.3e-09 M; IC50 [M], IL-8 production, InMyoFib stimulated with 10 nM hIL-36γ [6]: 6.4e-09 M; IC50 [M], IL-8 production, NHEK stimulated with 10 nM hIL-36α [6]: 5.06e-09 M; IC50 [M], IL-8 production, NHEK stimulated with 10 nM hIL-36β [6]: 5.79e-09 M; IC50 [M], IL-8 production, NHEK stimulated with 10 nM hIL-36γ [6]: 3.63e-09 M; IC50 [M], IL-8 production, PB-derived CD14+ Monocytes stimulated with 10 nM hIL-36α [6]: 2.38e-09 M; IC50 [M], IL-8 production, PB-derived CD14+ Monocytes stimulated with 10 nM hIL-36β [6]: 2.24e-09 M; IC50 [M], IL-8 production, PB-derived CD14+ Monocytes stimulated with 10 nM hIL-36γ [6]: 1.95e-09 M"
"H4H14708P2 (antibody, human IgG4 S228P, kappa, V domains shown) VH: EVQLVESGGDLVQPGRSLRLSCAASGFTFDDYAMHWVRQAPGKGLEWVSVISWNSDVIAYSDSVKGRFTISRDNAKNSLYLQMNSLRTEDTALYYCTKGHKWSFFDYWGQGTLVTVSS VL: EIVLTQSPATLSLSPGERATLSCRASQSISSYLAWYQQKPGQAPRLLIFNVANRATDIPARFSGSGSGTDFTLTISSLEPEDFAVYYCQQRSNWPLTFGGGTKVEIKR [H4H14708P2, listing 2 of 2 here]",1 to 6,1.6e-10,2e-10,1.3e-10,99,100,101,1.2e-10,8.9e-11,1.2e-10,100,99,100,76,6.82,0.000623,91400,19,106,13.6,koff [5]: 0.00186 s⁻¹; kon [5]: 136000 M⁻¹ s⁻¹; t½ [5]: 6 min
"H4H14706P2 (antibody, human IgG4 S228P, kappa, V domains shown) VH: EVQLVESGGGLVQPGRSLRLSCTASGFTFDDYAIHWVRQSPGKGLEWVSVISWNSDVIGYADSVKGRFTISRDNAKNSLYLQMNSLRAEDTALYYCAKGYNWNFFDYWGQGTLVTVSS VL: EIVLTQSPATLSLSPGERATLSCRASQSVSSYLAWYQQKPGQAPRLLIYNAANRATDIPARFSGSGSGTDFTLTISSLEPEDFAVYYCQQRSNWPLTFGGGTKVEIKR [H4H14706P2, listing 2 of 2 here]",–,–,–,–,–,–,–,–,–,–,–,–,–,–,–,–,–,–,–,–,"IC50 [M], IL-8 production, InMyoFib stimulated with 10 nM hIL-36α [6]: 4.89e-09 M; IC50 [M], IL-8 production, InMyoFib stimulated with 10 nM hIL-36β [6]: 3.62e-09 M; IC50 [M], IL-8 production, InMyoFib stimulated with 10 nM hIL-36γ [6]: 4.59e-09 M; IC50 [M], IL-8 production, NHEK stimulated with 10 nM hIL-36α [6]: 4.42e-09 M; IC50 [M], IL-8 production, NHEK stimulated with 10 nM hIL-36β [6]: 3.62e-09 M; IC50 [M], IL-8 production, NHEK stimulated with 10 nM hIL-36γ [6]: 2.11e-09 M; IC50 [M], IL-8 production, PB-derived CD14+ Monocytes stimulated with 10 nM hIL-36α [6]: 1.15e-09 M; IC50 [M], IL-8 production, PB-derived CD14+ Monocytes stimulated with 10 nM hIL-36β [6]: 1.74e-09 M; IC50 [M], IL-8 production, PB-derived CD14+ Monocytes stimulated with 10 nM hIL-36γ [6]: 1.58e-09 M"
